Data published in PMC11408749, “Molecular mechanisms for DNA methylation defects induced by ICF syndrome‐linked mutations in DNMT3B”.

Legend:
Assay in all cases: fluorescence polarization; FP: 10 nM DNA, 20 mM Tris-HCl pH 8.0, 50 mM NaCl, 5% glycerol, 1 mM TCEP, 30 min at 25 C
[1] = biological target: DNMT3BΔ214 WT;DNMT3L MTase-like domain (human;human, UniProt Q9UBC3;Q9UJW3 215-853;179-379, |); settings: protein: recombinant;recombinant; tags: tag (if any) removed by TEV;6xHis removed by TEV; chain copies: 2;2; label: 3'-FAM
[2] = biological target: DNMT3BΔ570 R823G;DNMT3L MTase-like domain (human;human, UniProt Q9UBC3;Q9UJW3 571-853;179-379, R823G|); settings: protein: recombinant;recombinant; tags: 6xHis-SUMO removed by TEV;6xHis removed by TEV; chain copies: 2;2; label: 3'-FAM
[3] = biological target: DNMT3BΔ214 V818M;DNMT3L MTase-like domain (human;human, UniProt Q9UBC3;Q9UJW3 215-853;179-379, V818M|); settings: protein: recombinant;recombinant; tags: tag (if any) removed by TEV;6xHis removed by TEV; chain copies: 2;2; label: 3'-FAM
[4] = biological target: DNMT3BΔ214 R823G;DNMT3L MTase-like domain (human;human, UniProt Q9UBC3;Q9UJW3 215-853;179-379, R823G|); settings: protein: recombinant;recombinant; tags: tag (if any) removed by TEV;6xHis removed by TEV; chain copies: 2;2; label: 3'-FAM
[5] = biological target: DNMT3BΔ214 D817G;DNMT3L MTase-like domain (human;human, UniProt Q9UBC3;Q9UJW3 215-853;179-379, D817G|); settings: protein: recombinant;recombinant; tags: tag (if any) removed by TEV;6xHis removed by TEV; chain copies: 2;2; label: 3'-FAM
[6] = biological target: DNMT3BΔ570 WT;DNMT3L MTase-like domain (human;human, UniProt Q9UBC3;Q9UJW3 571-853;179-379, |); settings: protein: recombinant;recombinant; tags: 6xHis-SUMO removed by TEV;6xHis removed by TEV; chain copies: 2;2; label: 3'-FAM
[7] = biological target: DNMT3BΔ214 H814R;DNMT3L MTase-like domain (human;human, UniProt Q9UBC3;Q9UJW3 215-853;179-379, H814R|); settings: protein: recombinant;recombinant; tags: tag (if any) removed by TEV;6xHis removed by TEV; chain copies: 2;2; label: 3'-FAM
Sequence of DNMT3BΔ214 H814R;DNMT3L MTase-like domain (Q9UJW3 179-379, chain 2 of 2, other chains not shown): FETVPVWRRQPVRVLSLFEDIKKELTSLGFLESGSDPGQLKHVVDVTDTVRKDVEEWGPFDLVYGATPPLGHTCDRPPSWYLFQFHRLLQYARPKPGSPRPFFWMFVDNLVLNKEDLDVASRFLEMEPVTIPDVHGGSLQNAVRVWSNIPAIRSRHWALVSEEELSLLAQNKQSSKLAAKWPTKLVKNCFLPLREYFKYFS

Sequence of DNMT3BΔ570 R823G;DNMT3L MTase-like domain (Q9UJW3 179-379, chain 2 of 2, other chains not shown): as above
Sequence of DNMT3BΔ570 WT;DNMT3L MTase-like domain (Q9UJW3 179-379, stated change not applied, chain 2 of 2, other chains not shown): as the sequence (Q9UJW3 179-379, chain 2 of 2, other chains not shown) above
Sequence of DNMT3BΔ214 V818M;DNMT3L MTase-like domain (Q9UJW3 179-379, chain 2 of 2, other chains not shown): as above
Sequence of DNMT3BΔ214 WT;DNMT3L MTase-like domain (Q9UJW3 179-379, stated change not applied, chain 2 of 2, other chains not shown): as the sequence (Q9UJW3 179-379, chain 2 of 2, other chains not shown) above
Sequence of DNMT3BΔ214 R823G;DNMT3L MTase-like domain (Q9UJW3 179-379, chain 2 of 2, other chains not shown): as above
Sequence of DNMT3BΔ214 D817G;DNMT3L MTase-like domain (Q9UJW3 179-379, chain 2 of 2, other chains not shown): as above

B1: 49-bp FAM dsDNA (dsDNA)
DNA 1: AAAACGAAAAAAAAAAAAAAAAAAAAAAAAAAAAAAAAAAAAAAAAAAA
DNA 2: TTTTTTTTTTTTTTTTTTTTTTTTTTTTTTTTTTTTTTTTTTTCGTTTT
[1]
  Kd: 2.73 ± 0.26 µM
[2]
  Kd: 0.171 ± 0.008 µM
[3]
  Kd: 7.21 ± 0.78 µM
[4]
  Kd: 5.39 ± 0.58 µM
[5]
  Kd: 58 ± 6.15 µM
[6]
  Kd: 0.07 ± 0.007 µM
[7]
  Kd: 299 ± 55.8 µM
